Here are results for one molecule from patent US8877192B2, “Rage fusion proteins and methods of use” (TransTech Pharma, LLC, priority 2004, dated 2014).

For assay [1], the target named is T1, amphoterin (Ampho) (Homo sapiens, UniProt P09429).
T1 sequence (P09429 1-215): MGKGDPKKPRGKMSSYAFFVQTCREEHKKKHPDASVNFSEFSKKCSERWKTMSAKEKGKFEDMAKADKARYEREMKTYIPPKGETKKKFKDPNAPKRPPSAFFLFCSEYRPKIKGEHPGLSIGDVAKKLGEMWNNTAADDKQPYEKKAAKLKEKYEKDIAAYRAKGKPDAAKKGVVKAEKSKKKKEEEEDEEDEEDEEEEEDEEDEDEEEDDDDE
Nature of the assay: In vitro ligand binding (ELISA) to immobilized amphoterin. As to conditions: increasing dilutions of fusion protein; FIG. 7. As to the method:
For example, the RAGE fusion protein may be used in a binding assay to identify potential RAGE ligands. In one example embodiment of such a binding assay, a known RAGE ligand may coated onto a solid substrate (e.g., Maxisorb plates) at a concentration of about 5 micrograms per well, where each well contains a total volume of about 100 microliters (μL). The plates may be incubated at 4° C. overnight to allow the ligand to absorb. Alternatively, shorter incubation periods at higher temperature (e.g., room temperature) may be used. […] The fusion protein bound to the immobilized ligand may be detected in a variety of ways. […] The bound complex may be detected by adding the alkaline phosphatase substrate, para-nitrophenylphosphate (PNPP), and measuring conversion of PNPP to para-nitrophenol (PNP) as an increase in absorbance at 405 nm. […] Binding was detected by the addition of an immunodetection complex containing a monoclonal mouse anti-human IgG1 diluted 1:11,000 to a final assay concentration (FAC) of 21 ng/100 μL, a biotinylated goat anti-mouse IgG diluted 1:500, to a FAC of […], and an avidin-linked alkaline phosphatase. […] Binding of the complex to the immobilized fusion protein was quantified by measuring conversion of PNPP to para-nitrophenol (PNP) which was measured spectrophotometrically at 405 nm. […]
A general note: ELISA stands for enzyme-linked immunosorbent assay.

The subject of assay [2] is diabetic rat model of restenosis. Nature of the assay: Diabetic rat model of restenosis (balloon injury of left common carotid artery). Type of assay: in vivo, Zucker diabetic rats. The note with it: 4 days after injury; dose-responsive; FIG. 13B. The protocol:
In these experiments, balloon injury of left common carotid artery was performed in Zucker diabetic and nondiabetic rats using standard procedure. […] A maintenance dose was delivered every other day until day 7 after injury (i.e., at day 1, 3, 5 and 7 after injury). The maintenance dose was high=1 mg/animal for one group, or low=0.3 mg/animal for the second group. To measure vascular smooth muscle cell (VSMC) proliferation, animals were sacrificed at 4 days and 21 days after injury. For the measurement of cell proliferation, 4 day animals received intraperitoneal injection of bromodeoxyuridine (BrDdU) 50 mg/kg at 18, 12, and 2 hours before euthanasia. After sacrifice, the entire left and right carotid arteries were harvested. Specimens were stored in Histochoice for at least 24 hours before embedding. […] A fluorescence labeled goat anti-mouse secondary antibody was applied. The number of BrdU-positive nuclei per section were counted by two observers blinded to the treatment regimens.
The remaining rats were sacrificed at 21 days for morphometric analysis. Morphometric analyses were performed by an observer blinded to the study groups, using computerized digital microscopic planimetry software Image-Pro Plus on serial sections, ([…]) carotid arteries stained by Van Gieson staining All data were expressed as mean±SD. […]

B1: TTP-4000: four domain RAGE fusion protein (SEQ ID NO: 32): human RAGE amino acids 1-251 linked to CH2 and CH3 domains of human IgG (protein)
chain: MAAGTAVGAWALVLSLWGAVVGAQNITARIGEPLVLKCKGAPKKPPQRLEWKLNTGRTEAWKVLSPQGGGPWDSVARVLPNGSLFLPAVGIQDEGIFRCQAMNRNGKETKSNYRVRVYQIPGKPEIVDSASELTAGVPNKVGTCVSEGSYPAGTLSWHLDGKPLVPNEKGVSVKEQTRRHPETGLFTLQSELMVTPARGGDPRPTFSCSFSPGLPRHRALRTAPIQPRVWEPVPLEEVQLVVEPEGGAVAPPSVFLFPPKPKDTLMISRTPEVTCVVVDVSHEDPEVKFNWYVDGVEVHNAKTKPREEQYNSTYRVVSVLTVLHQDWLNGKEYKCKVSNKALPAPIEKTISKAKGQPREPQVYTLPPSRDELTKNQVSLTCLVKGFYPSDIAVEWESNGQPENNYKTTPPVLDSDGSFFLYSKLTVDKSRWQQGNVFSCSVMHEALHNHYTQKSLSLSPGK
B1: in assay [1], the “binding to immobilized amphoterin (absorbance at 405 nm)” value is “specifically interact”. The “vascular smooth muscle cell proliferation (BrdU-positive nuclei)” value in assay [2] is recorded as “significantly reduced”.
